The results in this text go back to patent US20090181444A1, “MODIFIED CARBOHYDRATE PROCESSING ENZYME” (priority 2002, published 2009).

The nature of this series: Kinetic assay with o-nitrophenyl β-D-galactopyranoside-6-phosphate, absorbance at 405 nm. The format is biochemical. As to conditions: oNPGalP6, 45° C., pH 6.5 phosphate buffer; averaged over 3 runs, except * 2 runs. How it is done:
The kinetic activity of SsδG was assessed using ultra-violet/visible spectroscopy. Cleavage of the glycosidic bond of the nitrophenyl sugar analogue releases a chromophore (Scheme 18), either p-nitrophenol or o-nitrophenol.
The absorbance of these chromophores at 405 nm was continuously measured at regular time intervals, and the Beer-Lambert Law used to calculate the chromophore concentration at each of these time intervals.
In order to use this equation the extinction coefficient, ∈, of both p-nitrophenol and o-nitrophenol were calculated. Enzyme kinetic parameters were assessed using the initial rates method. The gradient of a plot of chromophore concentration against time gave the initial rate of reaction at a series of substrate concentrations (0.05-10 mM). Kinetic parameters were calculated by regression analysis of the kinetic data on the Michaelis-Menten Model (Fersht, A., Enzyme Structure and Mechanism, W.H. Freeman and Company, New York (1985)). The initial rate of reaction was measured. This model is valid when [substrate]>>[enzyme], which are initial rate conditions.
KM and νmax were calculated from non-linear Michaelis-Menten and linear Lineweaver-Burk plots. From these values, kcat and kcat/KM were calculated and compared.
KM=νmax/2, it is the concentration of substrate at which half the active sites are filled. Higher KM values correspond to weaker binding and lower KM values correspond to stronger binding kcat, the turnover number is the number of substrate molecules which are converted to product when the enzyme is saturated with substrate and ν (rate) is maximised. […] To allow comparison of the activity of the enzymes, ln({kcat/KM}mutant/{kcat/KM}WT) was calculated for each enzyme-substrate combination, to give overall activity relative to WT.
Substrate solutions (concentration 10 mM in 50 mM pH 6.5 phosphate buffer) were prepared. […] The enzyme stock solution (˜1 mgmL^−1) was diluted between 16- and 80-fold depending on the kinetic parameters determined*. […] Simultaneously a 96-well flat bottom microtitre plate was incubated at 45° C. in a plate reader. […] The plate containing the enzyme and substrate solutions was then incubated in the plate reader at 45° C. to allow equilibration. […] Release of p-nitrophenol/o-nitropbenol was measured by absorbance at […], with an automix of 3 s before the first read and Is between every subsequent read. The run time chosen was between 6 min and 10 min*, and readings were taken at intervals of between 6 s and 10 s*.
A graph of concentration of the released chromophore (either pNP or oNP) against time was drawn for each concentration using Microsoft Excel. […] These gradients were entered into Grafit, which calculated KM and νmax from the Michelis-Menten and Lineweaver-Burk plots. From these kcat and kcat/KM could be calculated. […]

B1: WT: Wild type β-glycosidase from Sulfolobus solfataricus (SEQ ID NO: 2), recombinant with N-terminal His6-tag (protein, listed as Sulfolobus solfataricus)
chain: MYSFPNSFRFGWSQAGFQSEMGTPGSEDPNTDWYKWVHDPENMAAGLVSGDLPENGPGYWGNYKTFHDNAQKMGLKIARLNVEWSRIFPNPLPRPQNFDESKQDVTEVEINENELKRLDEYANKDALNHYREIFKDLKSRGLYFILNMYHWPLPLWLHDPIRVRRGDFTGPSGWLSTRTVYEFARFSAYIAWKFDDLVDEYSTMNEPNVVGGLGYVGVKSGFPPGYLSFELSRRHMYNIIQAHARAYDGIKSVSKKPVGIIYANSSFQPLTDKDMEAVEMAENDNRWWFFDAIIRGEITRGNEKIVRDDLKGRLDWIGVNYYTRTVVKRTEKGYVSLGGYGHGCERNSVSLAGLPTSDFGWEFFPEGLYDVLTKYWNRYHLYMYVTENGIADDADYQRPYYLVSHVYQVHRAINSGADVRGYLHWSLADNYEWASGFSMRFGLLKVDYNTKRLYWRPSALVYREIATNGAITDEIEHLNSVPPVKPLRH
modifications: N-terminal His6 tag
By Km is commonly meant the substrate concentration at which the rate is half of its maximum. One may read the kcat as the maximal rate divided by the concentration of active sites. Consider B1, for which the Km was found to be 2.09 mM and the kcat came out at 5.52 s⁻¹.
